± gives the uncertainty stated by the source.
Experiment: self-splicing fitness, log relative to wild type (ln ratio); higher = more splicing; Tetrahymena group I intron in knt gene, E. coli kanamycin selection, DiMSum; sequences stand for … in CUCUCU…GGAGGGAAAAGUUAUCAGGCAUGCACCUGGUAGCUAGUCUUUAAACCAAUAGAUUGCAUCGGUUUAAAAGGCAAGACCGUCAAAUUGCGGGAAAGGGGUCAACAGCCGUUCAGUACCAAGUCUCAGGGGAAACUUUGAGAUGGCCUUGCAAAGGGUAUGGUAAUAAGCUGACGGACAUGGUCCUAACCACGCAGCCAAGUCCUAAGUCAACAGAUCUUCUGUUGAUAUGGAUGCAGUUCACAGACUAAAUGUCGGUCGGGGAAGAUGUAUUCUUCUCAUAAGAUAUAGUCGGACCUCUCCUUAAUGGGAGCUAGCGGAUGAAGUGAUGCAACACUGGAGCCGCUGGGAACUAAUUUGUAUGCGAAAGUAUAUUGAUUAGUUUUGGAGUACUCGUGGUCG
Procedure, shortened: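 Pooled colonies went to amplicon sequencing on an Illumina HiSeq 2500 after six replicate transformations. The plates were LB agar with 100 μg/mL carbenicillin, 50 μM IPTG and 0.2% rhamnose, with or without 25 μg/mL kanamycin, incubated overnight at 37°C or 30°C. The E. coli BL21(DE3) library had all eight P1ex-region intron nucleotides randomised, the intron placed in the knt kanamycin-resistance gene on pET-22b(+). DiMSum fitness is the error-weighted combination of replicate fold changes, kanamycin against none, normalised to wild type.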

Row | Sequence | self-splicing fitness (ln) (30 °C) | self-splicing fitness (ln) (37 °C)
1 | GCACAGCAAUAUUACGAAUU | -1.19 ± 0.077 | -0.471 ± 0.085
2 | GCACAGCAAUAUUACGAGCC | -3.2 ± 0.28 | -2.01 ± 0.23
3 | GCACAGCAAUAUUACGAGUC | -2.62 ± 0.069 | -1.29 ± 0.065
4 | GCACAGCAAUAUUACGAGUU | -1.81 ± 0.057 | -0.499 ± 0.072
5 | GCACAGCAAUAUUACGAUCA | -0.983 ± 0.13 | -0.209 ± 0.14
6 | GCACAGCAAUAUUACGCACG | -2.06 ± 0.11 | -0.889 ± 0.1
7 | GCACAGCAAUAUUACGCCAU | -3.37 ± 0.12 | -2.42 ± 0.12
8 | GCACAGCAAUAUUACGCCUG | -1.28 ± 0.087 | -0.89 ± 0.1
9 | GCACAGCAAUAUUACGCGUC | -3.73 ± 0.2 | -0.646 ± 0.098
10 | GCACAGCAAUAUUACGCUCA | -1.08 ± 0.088 | -0.585 ± 0.1
11 | GCACAGCAAUAUUACGCUUC | -2.21 ± 0.094 | -1.3 ± 0.098
12 | GCACAGCAAUAUUACGGCUU | -0.432 ± 0.054 | -0.0629 ± 0.064
13 | GCACAGCAAUAUUACGGUUA | -0.902 ± 0.055 | -0.384 ± 0.059
14 | GCACAGCAAUAUUACGUUAA | -1.04 ± 0.055 | -0.544 ± 0.065
15 | GCACAGCAAUAUUACGUUUU | -1.14 ± 0.046 | -0.268 ± 0.065
16 | GCAGAGCAAUAUUACGAACA | -3.11 ± 0.4 | –
17 | GCAGAGCAAUAUUACGACGU | -0.995 ± 0.14 | -1.5 ± 0.18
18 | GCAGAGCAAUAUUACGAUUG | -4.02 ± 0.28 | -2.95 ± 0.23
19 | GCAGAGCAAUAUUACGCACA | -2.09 ± 0.24 | –
20 | GCAGAGCAAUAUUACGCAGU | -3.61 ± 0.29 | -1.86 ± 0.3
21 | GCAGAGCAAUAUUACGCCAU | -3.75 ± 0.4 | -2.78 ± 0.32
22 | GCAGAGCAAUAUUACGCCGA | – | -0.676 ± 0.34
23 | GCAGAGCAAUAUUACGCCUA | – | -2.09 ± 0.3
24 | GCAGAGCAAUAUUACGCUAG | -1.83 ± 0.44 | -1.79 ± 0.2
25 | GCAGAGCAAUAUUACGCUUA | -1.76 ± 0.3 | -1.99 ± 0.3

Row | Sequence | self-splicing fitness (ln) (30 °C) | self-splicing fitness (ln) (37 °C)
26 | GCAGAGCAAUAUUACGGCAA | -3.59 ± 0.46 | -3.6 ± 0.42
27 | GCAGAGCAAUAUUACGGGGU | -3.34 ± 0.23 | -3.16 ± 0.31
28 | GCAGAGCAAUAUUACGUAUA | -1.41 ± 0.22 | -2.76 ± 0.47
29 | GCAGAGCAAUAUUACGUCUC | – | -2.17 ± 0.31
30 | GCAGAGCAAUAUUACGUUCG | -1.91 ± 0.14 | -1.99 ± 0.3
31 | GCAUAGCAAUAUUACGAACC | -1.45 ± 0.089 | 0.452 ± 0.1
32 | GCAUAGCAAUAUUACGAACU | -1.11 ± 0.084 | -0.315 ± 0.11
33 | GCAUAGCAAUAUUACGACAC | 0.147 ± 0.14 | -0.214 ± 0.19
34 | GCAUAGCAAUAUUACGACCC | -0.0863 ± 0.27 | 0.324 ± 0.39
35 | GCAUAGCAAUAUUACGAGAC | -2.7 ± 0.32 | -1.59 ± 0.23
36 | GCAUAGCAAUAUUACGAUCA | -2.05 ± 0.34 | 0.131 ± 0.22
37 | GCAUAGCAAUAUUACGCAUC | -3.1 ± 0.23 | -3.22 ± 0.27
38 | GCAUAGCAAUAUUACGCGUU | -2.03 ± 0.11 | -2.14 ± 0.17
39 | GCAUAGCAAUAUUACGCUAA | -2.72 ± 0.27 | -2.49 ± 0.22
40 | GCAUAGCAAUAUUACGCUUA | -1.6 ± 0.14 | -1.18 ± 0.1
41 | GCAUAGCAAUAUUACGGACC | -0.439 ± 0.1 | -0.576 ± 0.093
42 | GCAUAGCAAUAUUACGGAGG | -3.03 ± 0.12 | -3.37 ± 0.21
43 | GCAUAGCAAUAUUACGGCAA | -1.49 ± 0.18 | -0.271 ± 0.17
44 | GCAUAGCAAUAUUACGGCUC | 0.0416 ± 0.087 | -0.0445 ± 0.088
45 | GCAUAGCAAUAUUACGGGUA | -0.992 ± 0.12 | -1.11 ± 0.11
46 | GCAUAGCAAUAUUACGGGUG | -2.29 ± 0.13 | -1.82 ± 0.12
47 | GCAUAGCAAUAUUACGGUCA | -0.966 ± 0.09 | -0.953 ± 0.096
48 | GCAUAGCAAUAUUACGGUCG | -1.77 ± 0.12 | -1.12 ± 0.12
49 | GCAUAGCAAUAUUACGGUUU | -1.62 ± 0.08 | -0.625 ± 0.085
50 | GCAUAGCAAUAUUACGUAAU | -2.58 ± 0.1 | -0.793 ± 0.096

Row | Sequence | self-splicing fitness (ln) (30 °C) | self-splicing fitness (ln) (37 °C)
51 | GCAUAGCAAUAUUACGUCUC | -1.85 ± 0.14 | -0.552 ± 0.11
52 | GCAUAGCAAUAUUACGUGAG | -0.159 ± 0.069 | -0.351 ± 0.083
53 | GCAUAGCAAUAUUACGUGCC | -3.42 ± 0.21 | -1.03 ± 0.29
54 | GCAUAGCAAUAUUACGUUAA | -2.44 ± 0.19 | -1.81 ± 0.15
55 | GCCAAGCAAUAUUACGAAAC | -2.15 ± 0.14 | -0.23 ± 0.14
56 | GCCAAGCAAUAUUACGAAAU | -3.24 ± 0.19 | -2.28 ± 0.18
57 | GCCAAGCAAUAUUACGACCG | -3.81 ± 0.22 | -2.01 ± 0.12
58 | GCCAAGCAAUAUUACGACGU | -0.238 ± 0.099 | 0.0827 ± 0.088
59 | GCCAAGCAAUAUUACGAGAA | -2.69 ± 0.4 | -0.69 ± 0.35
60 | GCCAAGCAAUAUUACGAGAU | -2.41 ± 0.14 | -2.1 ± 0.17
61 | GCCAAGCAAUAUUACGAGGG | -2.8 ± 0.094 | -1.82 ± 0.11
62 | GCCAAGCAAUAUUACGAGUG | -2.32 ± 0.087 | -1.72 ± 0.093
63 | GCCAAGCAAUAUUACGAUGU | -0.536 ± 0.061 | 0.0237 ± 0.084
64 | GCCAAGCAAUAUUACGAUUA | -2.86 ± 0.17 | -2.57 ± 0.15
65 | GCCAAGCAAUAUUACGCAAC | -1.98 ± 0.13 | -1.32 ± 0.16
66 | GCCAAGCAAUAUUACGGAAA | -1.46 ± 0.16 | -1.14 ± 0.13
67 | GCCAAGCAAUAUUACGGAAC | -1.73 ± 0.18 | -0.77 ± 0.18
68 | GCCAAGCAAUAUUACGGAGG | -3.49 ± 0.19 | -1.08 ± 0.16
69 | GCCAAGCAAUAUUACGGCUG | -3.81 ± 0.13 | -3.25 ± 0.19
70 | GCCAAGCAAUAUUACGGGCU | -4.88 ± 0.28 | -2.98 ± 0.23
71 | GCCAAGCAAUAUUACGGUAA | -0.713 ± 0.1 | 0.0284 ± 0.1
72 | GCCAAGCAAUAUUACGGUAU | -1.62 ± 0.069 | 0.416 ± 0.076
73 | GCCAAGCAAUAUUACGGUGA | -1.06 ± 0.06 | -0.493 ± 0.065
74 | GCCAAGCAAUAUUACGGUGU | -1.48 ± 0.049 | -0.507 ± 0.06
75 | GCCAAGCAAUAUUACGUACA | -2.65 ± 0.16 | -1.65 ± 0.11

Row | Sequence | self-splicing fitness (ln) (30 °C) | self-splicing fitness (ln) (37 °C)
76 | GCCAAGCAAUAUUACGUACG | -1.79 ± 0.078 | -1.56 ± 0.11
77 | GCCAAGCAAUAUUACGUCGA | -2.34 ± 0.16 | -1.29 ± 0.14
78 | GCCAAGCAAUAUUACGUUCC | -0.712 ± 0.1 | -0.674 ± 0.16
79 | GCCCAGCAAUAUUACGACGC | -0.00307 ± 0.052 | -0.0866 ± 0.067
80 | GCCCAGCAAUAUUACGACUG | -4.23 ± 0.22 | -2.44 ± 0.19
81 | GCCCAGCAAUAUUACGAGAA | -0.685 ± 0.28 | -0.511 ± 0.21
82 | GCCCAGCAAUAUUACGAUCU | -1.36 ± 0.092 | -1.47 ± 0.12
83 | GCCCAGCAAUAUUACGCAAA | -2.41 ± 0.14 | -1.3 ± 0.11
84 | GCCCAGCAAUAUUACGCCCU | -0.933 ± 0.12 | -0.685 ± 0.16
85 | GCCCAGCAAUAUUACGCCGU | -0.724 ± 0.092 | -0.492 ± 0.094
86 | GCCCAGCAAUAUUACGCCUA | -1.9 ± 0.18 | -0.261 ± 0.12
87 | GCCCAGCAAUAUUACGCGGU | -3.33 ± 0.16 | -3.02 ± 0.19
88 | GCCCAGCAAUAUUACGCUCG | -3.45 ± 0.24 | -2.34 ± 0.27
89 | GCCCAGCAAUAUUACGCUGC | – | -1.55 ± 0.41
90 | GCCCAGCAAUAUUACGCUUA | -0.569 ± 0.071 | -0.378 ± 0.08
91 | GCCCAGCAAUAUUACGCUUU | 0.177 ± 0.056 | 0.242 ± 0.074
92 | GCCCAGCAAUAUUACGGACA | -0.873 ± 0.12 | -0.931 ± 0.13
93 | GCCCAGCAAUAUUACGGAGG | -4.2 ± 0.15 | -2.51 ± 0.13
94 | GCCCAGCAAUAUUACGGGCC | -3.22 ± 0.13 | -2.58 ± 0.26
95 | GCCCAGCAAUAUUACGGGGU | -3.84 ± 0.19 | -2.77 ± 0.24
96 | GCCCAGCAAUAUUACGGUCA | -0.8 ± 0.071 | -0.326 ± 0.074
97 | GCCCAGCAAUAUUACGGUGG | -3.21 ± 0.17 | -3.59 ± 0.25

— the supplement of paper PMC7877785
